# Assay results taken from patent publication US20240327477A1, “COMPOSITIONS AND METHODS FOR THE TREATMENT OF TDP-43 PROTEINOPATHIES” (SOLA BIOSCIENCES LLC, priority 2020, published 2024).
# B1: Construct 2: scFv(3B12A)-only control; binds TDP-43 (protein)
# scFv: MGTGSEFDIAAAEVQLQQSGAELVKPGASVKLSCTASGFNIKDYYMHWVKQRTEQGLEWIGRIDPEDGETKYAPKFQGKATITADTSSNTAYLQLSSLTSEDTAVYYCTIIYYYGSRYVDYWGQGTTLTVSGGGGSGGGGSGGGGSEIVLTQSPTTMAASPGEKITITCSASSSISSSYLHWYQQKPGFSPKLLIYRTSNLASGVPARFSGSGSGTSYSLTIGTMEAEDVATYYCQQGSSIPLTFGSGTKLEI
# B2: 2 (protein)
# scFv: B1 scFv
# B3: 11 (protein)
# chain: MSVVGLDVGSQSCYIAVARAGGIETIANEFSDRCTPSVISFGSKNRTIGVAAKNQQITHANNTVSNFKRFHGRAFNDPFIQKEKENLSYDLVPLKNGGVGIKVMYMGEEHLFSVEQITAMLLTKLKETAENSLKKPVTDCVISVPSFFTDAERRSVLDAAQIVGLNCLRLMNDMTAVALNYGIYKQDLPSLDEKPRIVVFVDMGHSAFQVSACAFNKGKLKVLGTAFDPFLGGKNFDEKLVEHFCAEFKTKYKLDAKSKIRALLRLYQECEKLKKLMSSNSTDLPLNIECFMNDKDVSGKMNRSQFEELCAELLQKIEVPLYSLLEQTHLKVEDVSAVEIVGGATRIPAVKERIAKFFGKDISTTLNADEAVARGCALQCAILSPAFKVREFSVTDAVPFPISLIWNHDSEDTEGVHEVFSRNHAAPFSKVLTFLRRGPFELEAFYSDPQGVPYPEAKIGRFVVQNVSAQKDGEKSRVKVKVRVNTHGIFTISTASMVEKVPTEENEMSSEADMECLNQRPPENPDTDANEKKVDQPPEAKKPKIKVVNVELPIEANLVWQLGKDLLNMYIETEGKMIMQDKLEKERNDAKNAVEEYVYEFRDKLCGPYEKFICEQDHQNFLRLLTETEDWLYEEGEDQAKQAYVDKLEELMKIGTPVKVRFQEAEERPKMFEELGQRLQHYAKIAADFRNKDEKYNHIDESEMKKVEKSVNEVMEWMNNVMNAQAKKSLDQDPVVRAQEIKTKIKELNNTCEPVVTQPKPKIESPKLERTPNGPNIDKKEEDLEDKNNFGAEPPHQNGECYPNEKNSVNMDLD
# B4: Construct 16: comprises a J domain without the consensus HPD sequence (SEQ ID NO: 16), fused to scFv(3B12A) (protein)
# chain: MGQDYYSVLGITRNSEDAQIKQAYRRLALKHHPLKSNEPSSAEIFRQIAEAYDVLSDPMKRGIYDKFGEEGLKGGDIGGGGSGGGGSGGGGSGGGGSAAAEVQLQQSGAELVKPGASVKLSCTASGFNIKDYYMHWVKQRTEQGLEWIGRIDPEDGETKYAPKFQGKATITADTSSNTAYLQLSSLTSEDTAVYYCTIIYYYGSRYVDYWGQGTTLTVSGGGGSGGGGSGGGGSEIVLTQSPTTMAASPGEKITITCSASSSISSSYLHWYQQKPGFSPKLLIYRTSNLASGVPARFSGSGSGTSYSLTIGTMEAEDVATYYCQQGSSIPLTFGSGTKLEI
# B5: 16 (protein)
# chain: B4 chain
# B6: 15 (protein)
# chain: MDYYKILGVDKNASEDEIKKAYRKRALMHHPDRHSGASAEVQKEEEKKFKEVGEAFTILSDPKKKTRYDSGQDIGGGGSGGGGSGGGGSGGGGSAAAEVQLQQSGAELVKPGASVKLSCTASGFNIKDYYMHWVKQRTEQGLEWIGRIDPEDGETKYAPKFQGKATITADTSSNTAYLQLSSLTSEDTAVYYCTIIYYYGSRYVDYWGQGTTLTVSGGGGSGGGGSGGGGSEIVLTQSPTTMAASPGEKITITCSASSSISSSYLHWYQQKPGFSPKLLIYRTSNLASGVPARFSGSGSGTSYSLTIGTMEAEDVATYYCQQGSSIPLTFGSGTKLEI
# B7: 19 (protein)
# chain: MGKDYYQTLGLARGASDEEIKRAYRRQALRYHPDKNKEPGAEEKFKEIAEAYDVLSDPRKREIFDRYGEEGLKGSEVQLQQSGAELVKPGASVKLSCTASGFNIKDYYMHWVKQRTEQGLEWIGRIDPEDGETKYAPKFQGKATITADTSSNTAYLQLSSLTSEDTAVYYCTIIYYYGSRYVDYWGQGTTLTVSGGGGSGGGGSGGGGSEIVLTQSPTTMAASPGEKITITCSASSSISSSYLHWYQQKPGFSPKLLIYRTSNLASGVPARFSGSGSGTSYSLTIGTMEAEDVATYYCQQGSSIPLTFGSGTKLEI
# Tests used:
# Assay type in all cases: cell-based
# GFP-TDP43CTF = target: T1, GFP-TDP43CTF (Homo sapiens, UniProt Q13148); assay: Fluorescence microscopy of GFP-TDP43CTF aggregation (GFP foci) in transfected HEK293 cells; conditions: HEK293 cells; for % Aggregation (normalized to GFP-TDP43CTF alone): GFP-TDP43CTF reporter
# T1 construct: expressed in transfected cells; host or cells: HEK293
# Method: (§1) Expression vector plasmids encoding various protein constructs were transfected into HEK293 cells with Lipofectamine 3000 transfection reagent (Thermo Fisher Scientific). Cell lysates were analyzed for expressed proteins using immunoblot assays. Samples of culture media were centrifuged to remove debris prior to analysis. Cells were lysed in a lysis buffer (10 mM Tris-HCl, pH 8.0, 150 mM NaCl, 10 mM EDTA, 2% SDS) containing 2 mM PMSF and protease cocktail (Complete Protease Inhibitor Cocktail; Sigma). After brief sonication, the samples were analyzed for expressed proteins using immunoblot assays. For immunoblot analysis, samples were boiled in an SDS-sample buffer and run on polyacrylamide electrophoresis. Thereafter, the separated protein bands were transferred to a PVDF membrane.
# (§2) In some instances, aggregation of TDP-43 (full-length of C-terminal fragment) GFP reporter constructs (described below) were detected in vivo using fluorescence microscopy. Cultured cells expressing the reporter constructs as well as the fusion protein comprising the J domain and TDP-43-binding domain were washed with PBS and fixed with 4% paraformaldehyde in PBS for 5 minutes. After three 5-min washes with PBS, nuclear DNA was stained with DAPI. Percentage of cells containing TDP-43 (GFP foci) in transfected cells was counted.
# We first investigated whether the fusion molecule of the present invention targeting TDP-43 ameliorates its aggregation in cultured cells. To this end, we generated GFP-based reporter constructs GFP-TDP43 and GFP-TDP43, wherein GFP was fused at its C-terminus to either the full-length human TDP-43 protein or the C-terminal fragment TDP-43 which is known to form cytoplasmic aggregation and cytotoxicity (See Table 8 below). HEK293 cells were cultured and transfected with the plasmids encoding the full-length TDP43 or the C-terminal fragment of TDP43, containing the C-terminal 207 amino acids TDP-43 (amino acids 208-414 of human TDP-43) as a GFP fusion [GFP-TDP43FL (SEQ ID NO: 101) or GFP-TDP43CTF (SEQ ID NO: 102)].
# GFP-TDP43FL [1] = target: T2, GFP-TDP43FL (Homo sapiens, UniProt Q13148); assay: Immunoblot (anti-GFP) of reporter level in cell extracts; conditions: cell extracts (FIG. 5)
# T2 construct: expressed in transfected cells; host or cells: HEK293
# Method: as §1
# (§3) Expressed proteins were detected using a chemiluminescent signal. Briefly, blots were reacted with a primary antibody capable of binding the particular epitope (e.g., GFP). After rinsing away the unreacted primary antibody, a secondary, enzyme-linked antibody (e.g., HRP-linked anti-lgG antibody) was allowed to react with the primary antibody molecules bound to the blots. Following rinsing, a chemiluminescent reagent was added, and the resultant chemiluminescent signals in the blots were captured on X-ray film.
# [2] = target: T3, phosphorylated GFP-TDP43CTF reporter (Homo sapiens, UniProt Q13148); assay: Immunoblot with anti-phospho TDP43 antibody (cell extracts and fractions); conditions: cell extracts, anti-phosphoTDP43 antibody, Table 13 (FIG. 12)
# T3 construct: expressed in transfected cells; host or cells: HEK293
# GFP-TDP43FL [3] = target: T2, GFP-TDP43FL; assay: Fluorescence microscopy of GFP-TDP43FL aggregation (GFP foci) in transfected HEK293 cells; conditions: GFP-TDP43FL reporter, HEK293 cells, Table 10 (FIG. 3/4)
# Method: as §1
# as §2, with “counted. […]” for “counted.”
# [4] = target: T3, phosphorylated GFP-TDP43CTF reporter; assay: Immunoblot with anti-phospho TDP43 antibody (cell extracts and fractions)
# Text: Cells expressing either GFP-TDP43FL (lanes 1 and 7) or GFP-TDP43CTF (lanes 2-6, 8-12) were co-transfected with Construct 3 (lanes 3 and 9), Construct 17 (lanes 4 and 10), Construct 18 (lanes 5 and 11) and Construct 19 (lanes 6 and 12). Soluble fractions (lanes 1-6) and insoluble fractions (lanes 7-12) were probed with anti-phospho TDP43 antibodies.
# as §1, §3
# Transfected HEK293 cells are homogenized in RIPA buffer (50 mM Tris, pH7.5, 150 mM NaCl, 0.1% NP-40, 0.5% sodium deoxycholate, 0.1% SDS) supplemented with protease inhibitor cocktail, 2 mM PMSF, 10 mM NaF, and 2 mM Na3VO4. After brief sonication, protein concentration is measured by BCA assay kit (Pierce). […]
molecule,measurement,setting,value
B1,aggregation of GFP-TDP43CTF reporter in cells (in words),GFP-TDP43CTF; vs reporter alone,did not reduce aggregation
same,"levels of the full-length reporter construct (GFP-TDP43FL), anti-GFP immunoblot (in words)",GFP-TDP43FL [1],No differences
B2,% Phospho-TDP43 density (normalized to GFP-TDP43CTF alone),[2],122.81%
same,% Aggregation (normalized to GFP-TDP43CTF alone),GFP-TDP43CTF; Table 10 (FIG. 3/4),80.05%
same,% Aggregation (normalized to GFP-TDP43CTF alone),GFP-TDP43CTF; Table 12 (FIG. 8/9A),98.40%
same,% Aggregation (normalized to GFP-TDP43CTF alone),GFP-TDP43FL [3],5.86%
B3,% Aggregation (normalized to GFP-TDP43CTF alone),GFP-TDP43CTF; Table 12 (FIG. 8/9A),115.34%
B4,"ability to reduce aggregation of the GFP-TDP43CTF reporter construct (in words, with Tables 13 and 14)",[4]; HEK293 cells,not able to reduce aggregation
B5,% Phospho-TDP43 density (normalized to GFP-TDP43CTF alone),[2],106.49%
B6,% Phospho-TDP43 density (normalized to GFP-TDP43CTF alone),[2],47.89%
B7,% Phospho-TDP43 density (normalized to GFP-TDP43CTF alone) Insoluble fraction,"[4]; insoluble fraction, Table 14 (FIG. 14)",22.77%
same,% Phospho-TDP43 density (normalized to GFP-TDP43CTF alone) Soluble fraction,"[4]; soluble fraction, Table 14 (FIG. 14)",11.20%
